T1: human C5aR1 transiently expressed on the surface of Expi293 cells (Homo sapiens, UniProt P21730, K279N)
T1 construct: expressed in transfected cells; host or cells: Expi293 cells, transient
T1 sequence (P21730 with tags, fused parts or gaps K279N limits assumed): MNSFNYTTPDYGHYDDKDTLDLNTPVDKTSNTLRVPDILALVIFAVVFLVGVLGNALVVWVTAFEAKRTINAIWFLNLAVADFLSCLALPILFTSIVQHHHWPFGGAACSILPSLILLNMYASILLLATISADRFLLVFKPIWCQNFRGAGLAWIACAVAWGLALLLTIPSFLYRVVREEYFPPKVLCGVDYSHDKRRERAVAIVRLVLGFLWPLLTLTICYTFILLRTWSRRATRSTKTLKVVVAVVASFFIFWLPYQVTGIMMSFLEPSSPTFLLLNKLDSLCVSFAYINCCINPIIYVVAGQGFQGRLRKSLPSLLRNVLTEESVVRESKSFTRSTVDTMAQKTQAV

T2: biotinylated peptide representing the N-terminus of C5aR1 without tyrosine sulfation (Homo sapiens, UniProt P21730)
T2 construct: the N-terminus without tyrosine sulfation
T2 sequence (P21730 1-37 limits assumed): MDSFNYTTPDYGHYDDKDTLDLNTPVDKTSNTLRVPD

T3: biotinylated peptide representing the N-terminus of C5aR1 with tyrosine sulfation (Homo sapiens, UniProt P21730)
T3 construct: the N-terminus with tyrosine sulfation
T3 sequence (P21730 1-37): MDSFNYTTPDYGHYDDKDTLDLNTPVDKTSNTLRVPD

T4: C5aR1 (Homo sapiens, UniProt P21730)
T4 sequence (P21730 1-350): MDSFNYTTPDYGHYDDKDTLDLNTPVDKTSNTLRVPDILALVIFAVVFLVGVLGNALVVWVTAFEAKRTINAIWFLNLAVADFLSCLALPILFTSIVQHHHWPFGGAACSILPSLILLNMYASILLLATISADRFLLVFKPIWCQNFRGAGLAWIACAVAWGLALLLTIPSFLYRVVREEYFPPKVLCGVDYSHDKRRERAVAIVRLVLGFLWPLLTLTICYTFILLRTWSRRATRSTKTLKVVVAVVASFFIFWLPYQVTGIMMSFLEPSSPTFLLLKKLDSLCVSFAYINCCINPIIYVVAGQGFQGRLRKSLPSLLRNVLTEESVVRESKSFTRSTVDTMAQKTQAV

T5: C5aR1 (C5aR1-U937 cells) (Homo sapiens, UniProt P21730, K279N)
T5 construct: expressed in transfected cells
T5 sequence (P21730 with tags, fused parts or gaps K279N limits assumed): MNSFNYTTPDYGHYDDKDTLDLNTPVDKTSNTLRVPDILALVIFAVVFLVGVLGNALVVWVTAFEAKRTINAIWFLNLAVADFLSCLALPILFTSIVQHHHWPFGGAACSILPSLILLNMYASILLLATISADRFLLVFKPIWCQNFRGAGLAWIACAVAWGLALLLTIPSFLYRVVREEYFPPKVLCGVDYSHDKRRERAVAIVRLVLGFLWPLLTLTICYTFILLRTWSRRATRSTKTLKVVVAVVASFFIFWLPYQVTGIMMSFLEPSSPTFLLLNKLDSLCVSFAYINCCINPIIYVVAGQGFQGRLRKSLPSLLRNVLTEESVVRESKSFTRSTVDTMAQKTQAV

T6: C5aR1 (human neutrophils) (Homo sapiens, UniProt P21730)
T6 construct: neutrophils isolated from whole blood; host or cells: human neutrophils (cryopreserved, or isolated from whole blood)
T6 sequence (P21730 1-350): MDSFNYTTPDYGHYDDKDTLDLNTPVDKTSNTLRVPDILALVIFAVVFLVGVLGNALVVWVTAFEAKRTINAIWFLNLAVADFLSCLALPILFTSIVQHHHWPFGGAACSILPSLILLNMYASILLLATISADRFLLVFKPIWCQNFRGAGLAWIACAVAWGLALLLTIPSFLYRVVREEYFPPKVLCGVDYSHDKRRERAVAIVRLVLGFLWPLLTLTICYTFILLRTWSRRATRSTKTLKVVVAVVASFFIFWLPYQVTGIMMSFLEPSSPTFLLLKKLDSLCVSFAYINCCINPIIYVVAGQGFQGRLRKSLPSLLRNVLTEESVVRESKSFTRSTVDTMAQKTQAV


What was measured:
[1] = target: T1, human C5aR1 transiently expressed on the surface of Expi293 cells; experiment: Cell surface binding (flow cytometry), Expi293 cells transiently expressing human C5aR1; details: staining with 100 nM of antibody
Experimental: (§1) Follow up screening to ensure specificity was performed by measuring cell surface binding to cells expressing, for example, human C5aR1, human C5aR2, mouse C5aR1, and control cells that were mock transfected. Briefly, cell surface binding was performed on various C5aR1 expressing cell lines (transiently expressed Expi293 cells, stable C5aR1-U937 cells, and neutrophils isolated from whole blood). Briefly, a titration of antibody diluted in flow buffer (1×PBS with 2% fetal bovine serum) was incubated with cells for 1 hour at 4° C. Cells were washed twice with flow buffer. Anti-human-APC secondary antibody was diluted 1:400 in flow buffer and incubated with cells for 30 minutes. Cells were washed twice with flow buffer and resuspended in 100 μL of flow buffer. Fluorescence was measured using the iQue Screen Plus flow cytometer.

[2] = test system: control cells that were mock transfected; experiment: Cell surface binding (flow cytometry), mock transfected Expi293 control cells; details: staining with 100 nM of antibody
Experimental: as §1

[3] = target: T2, biotinylated peptide representing the N-terminus of C5aR1 without tyrosine sulfation; experiment: Epitope mapping by biolayer interferometry, N-terminus without tyrosine sulfation; format: binding; parameters: key: “+” indicates binding to the listed peptide; “−” indicates lack of binding to the listed peptide; details: 10 μg/mL of antibody, biotinylated peptide on streptavidin biosensor
Experimental: (§2) The epitope mapping was undertaken, using biolayer interferometry, on a series of exemplary anti-C5aR1 antibodies generated as described in Example 1. Briefly, for each antibody, biotinylated peptides representing ECL2, the N-terminus with tyrosine sulfation, and the N-terminus without tyrosine sulfation, were immobilized in a streptavidin biosensor. Subsequently, the biosensor was exposed to 10 μg/mL of antibody to detect antibody binding to the immobilized peptide. The results of the epitope mapping study are shown in Table 4 (“+” indicates binding to the listed peptide; “−” indicates lack of binding to the listed peptide).

[4] = target: T3, biotinylated peptide representing the N-terminus of C5aR1 with tyrosine sulfation; experiment: Epitope mapping by biolayer interferometry, N-terminus with tyrosine sulfation; format: binding; parameters: key: “+” indicates binding to the listed peptide; “−” indicates lack of binding to the listed peptide; details: 10 μg/mL of antibody, biotinylated peptide on streptavidin biosensor
Experimental: as §2

[5] = target: T7, biotinylated peptide representing ECL2 of C5aR1 (Homo sapiens, UniProt P21730); experiment: Epitope mapping by biolayer interferometry, ECL2 peptide; format: binding; parameters: key: “+” indicates binding to the listed peptide; “−” indicates lack of binding to the listed peptide; details: biolayer interferometry, 10 μg/mL of antibody, biotinylated peptide on streptavidin biosensor
T7 construct: cyclic ECL2 peptide spanning from residues R175 to C188
Experimental: as §2

[6] = target: T4, C5aR1; experiment: GeneBLAzer reporter assay (C5aR1 mediated Gα signaling); format: cell-based; parameters: host or cells: vendor's C5aR1 GeneBLAzer reporter cell line; details: 10 nM of antibody, 10 nM C5a
Experimental: In addition, a GeneBLAzer reporter assay was used, which mimics the calcium flux assay. The GeneBLAzer assay kit and C5aR1 cell line were commercially available from Thermo Fisher (Catalog #K1544). The assay was performed as recommend by the manufacturer. Briefly, antibodies or antagonists were incubated for 30 minutes at 37° C. C5a was then added to the cells and incubated at 37° C. for an additional 4-5 hours. Beta-lactamase substrate was then added and incubated for 2 hours at room temperature. Fluorescent measurements for each well with an excitation/emission of 409/460 (blue) and 409/530 (green) were measured. An increase in the blue to green ratio was proportional to C5aR1 activation and was used to calculate the percent of activation for the cells in each well.
Exemplary anti-C5aR1 antibodies generated as described in Example 1 were screened for antagonist activity against human C5aR1 using the GeneBLAzer assay, as described in Example 1. Briefly, cells were pre-incubated with 10 nM of antibody followed by addition of 10 nM C5a. The engineered induction of beta-lactamase expression by C5a-C5aR1 signaling was measured using the BLA substrate and calculating the ratio of blue and green fluorescence.

[7] = target: T5, C5aR1 (C5aR1-U937 cells); experiment: C5a induced calcium flux (Fluo-4), C5aR1-U937 cells; format: cell-based
Source text: (§3) Intracellular calcium is released into the cytoplasm by stimulation of GPCRs and acts as a second messenger of GPCR signaling, commonly used to quantify GPCR agonism and antagonism. As such, calcium flux assays using calcium sensitive dye were utilized to detect cytosolic changes in calcium concentration. […] The dye penetrated the cell membrane and became active once inside the cell. The active form of the dye became fluorescent after binding to intracellular calcium and the fluorescence was used to determine C5aR1 signaling in response to C5a addition. Specifically, stable C5aR1-U937 cells or neutrophils isolated from whole blood were stained with Fluo-4 Direct Calcium Assay kit from Thermo Fisher for 1 hour at 37° C. Next, antibody or antagonist was incubated with the cells for 30 minutes. The basal fluorescence with an excitation at 494 nm and emission at 516 nm was measured for 15 seconds. C5a was added to the cells and the fluorescence was measured over a span of four minutes. The basal read from before C5a stimulation and the max signal after C5a stimulation were used to calculate the response ratio. The potency of the antibodies was assessed for their ability to inhibit intracellular calcium release in C5aR1 expressing cells in the presence of C5a. Similar to the chemotaxis assay, the calcium flux assays were performed using engineered cells stably expressing C5aR1 as well as using human neutrophils.

[8] = target: T5, C5aR1 (C5aR1-U937 cells); experiment: C5a induced chemotaxis (transwell), C5aR1-U937 cells; format: cell-based; details: C5aR1-U937 cells; 1, 10, or 100 nM antibody; C5a 10^−6 to 10^−9.5 M
Source text: (§4) One of the primary mechanisms by which neutrophils migrate to the site of inflammation is by chemotaxis induced by a C5a/C5adesArg gradient is detected by C5aR1 signaling. Anti-C5aR1 antibodies were thus assessed in a chemotaxis assay for their ability to block C5a induced migration of neutrophils. The assay involved cell migration in a double chamber well separated by filters. The cells and inhibitors were applied into the upper chamber and the lower chamber was filled with the chemoattractant, causing the cells to migrate to the lower chamber. The inhibition activity was evaluated by counting the migrated cell numbers. Specifically, a titration of C5a was added to the bottom chamber a 96 transwell plate. Cells expressing human C5aR1 (C5aR1-U937 cells or human neutrophils) were incubated with or without antagonist and then seeded into the top chamber of the transwell plate. The cells were incubated for 2 hours. Cells that migrated to the bottom chamber were quantified using the CyQUANT cell proliferation kit following the manufacturer's protocol. The assay was performed using engineered cells stably expressing C5aR1 as well as using human neutrophils.
as §4, with “Anti-C5aR1” for “One of the primary mechanisms by which neutrophils migrate to the site of inflammation is by chemotaxis induced by a C5a/C5adesArg gradient is detected by C5aR1 signaling. Anti-C5aR1”, “were” for “were thus”
In a first experiment, C5aR1-U937 cells were seeded into the top chamber of a 96 Transwell plate in the presence of no antibody (antagonist), or of 1, 10, or 100 nM antibody (antagonist).

[9] = target: T6, C5aR1 (human neutrophils); experiment: C5a induced calcium flux (Fluo-4), human neutrophils; format: cell-based
Source text: as §3

Row | Molecule | Cell surface binding, Human C5aR1, geometric mean fluorescent intensity [1] | Cell surface binding, Mock transfection, geometric mean fluorescent intensity [2] | Binding to Non-sulfated N-terminal peptide [3] | Binding to Sulfated N-terminal peptide [4] | Binding to Cyclic ECL2 peptide [5] | antagonism of C5aR1 compared to reference antibodies or to Avacopan [6] | also measured
1 | Clone_336_v2-1 (antibody, V domains shown) VH: QVQLKQSGPGLVQSSQSLSITCTVSGFSLISYGVHWVRQSPGKGLEWLGVIWSGGSTDYNAAFKSRLSITKDNSKSQVFFKMNSLQADDTAIYYCAKNSQLGNAMDYWGQGTTVTVSS VL: DIVMSQSPSSLAVSAGEKVTMSCKSSQSLLSSRTRKNYLAWYQQKPGQSPKLLIYWASTRESGVPDRFTGSGSGTDFTLTISSVQAEDLALYFCNQSYDLLTFGAGTKLEIK | 223,156 | 5,007 Clone_511v2 |  |  |  |  | 
2 | clone 336v2-1: exemplary anti-C5aR1 antibody, Table 1C (antibody, V domains shown) VH: QVQLKQSGPGLVQSSQSLSITCTVSGFSLISYGVHWVRQSPGKGLEWLGVIWSGGSTDYNAAFKSRLSITKDNSKSQVFFKMNSLQADDTAIYYCAKNSQLGNAMDYWGQGTTVTVSS VL: DIVMSQSPSSLAVSAGEKVTMSCKSSQSLLSSRTRKNYLAWYQQKPGQSPKLLIYWASTRESGVPDRFTGSGSGTDFTLTISSVQAEDLALYFCNQSYDLLTFGAGTKLEIK |  |  | − | − | + |  | 
3 | Clone_317v2-1 (antibody, V domains shown) VH: QVQLQQPGAELVMPGASVKLSCKASGYTFTSYWMHWVKQRPGQGLEWIGEIDPSDSYTNYNQKFKGKATLTVDKSSSTAYMQLSSLTSEDSAVYYCARVAYYSNFGGFAYWGQGTTVTVSS VL: DIVMTQSPSSLSVSAGEKVTMSCKSSQSLLKSGNQKNYLAWHQQKPGQPPKLLIYGASTRESGVPDRFTGSGSGTDFTLTISSVQAEDLAVYYCQNDHSHPYTFGGGTKLEIK | 8,106 | 4,535 Clone_507 |  |  |  |  | 
4 | clone 322: anti-C5aR1 Site I antibody; VH SEQ ID NO: 491, VL SEQ ID NO: 551 (antibody, V domains shown) VH: QVQLQQSDAALVKPGASVKISCKASGHTFTDHAIHWVKQRPEQGLEWIGYISPGNGDIKYNDKFKGKATLTADKSSSTAYMQLNSLTPEDSAVYFCKGPLFVRGQYYITMDYWGQGTTVTVSS VL: DIVMTQSQKFMSTTVGDRVSITCKASQNVGAAVVWYQQKPGQSPKLLIYSASYRYSGVPDRFTGSGSGTDFTLTISNMQSEDLADYFCQQYNSFPLTFGGGTKLEIK |  |  |  |  |  | comparable | 
5 | clone 11v2: anti-C5aR1 Site II antibody; VH SEQ ID NO: 482, VL SEQ ID NO: 542 (antibody, V domains shown) VH: QVQLQQSGPELVKPGASVKISCKASGYSFSSSWMNWVKQRPGKGLEWIGRISPGDGDTRYSGKFKGKATLTADKSSSTAYMQVTSLTSEDSAIYFCVRFLITSTRYVMDYWGQGTTVTVSS VL: DVVMTQTPLSLPVSLGDQASISCRSSQSLVHSNGNTYLHWYLQKPGQSPKLLIYKVSNRFSGVPDRFSGSGSGTDFTLKISRVEAEDLGVYFCSQSTLVPPTFGGGTKLEIK |  |  | − | − | + | improved | inhibition of C5a induced intracellular calcium flux [7]: inhibition of the C5a induced calcium efflux; inhibition of cell chemotaxis [8]: strongest effects; inhibition of C5a induced calcium efflux [9]: inhibition of the C5a induced calcium efflux

Reference: US12187807B2, “Antibody molecules to C5AR1 and uses thereof” (Visterra, Inc., priority 2020, dated 2025)
